# Variants at the floor of the assay were thinned out.
# B1: TPR 5TU (parent)
# chain: GGAUCUUCUCGAUCUAACAAAAAAGACAAAUCUGCCACAAAGCUUGAGAGCAUCUUCGGAUGCAGAGGCGGCAGCCUUCGGUGGCGCGAUAGCGCCAACGUUCUCAACUAUGACACGCAAAACGCGUGCUCCGUUGAAUGGAGUUUAUCAUG
# Variants of: B1
# Experiment: polymerase ribozyme fitness, log enrichment relative to wild type (log ratio); higher = more active; in vitro selection for triplet polymerase activity
# How it was run: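 One round of in vitro selection, in triplicate, was applied to PCR-built, transcribed mutant libraries of each subunit of a heterodimeric triplet polymerase ribozyme. The steps were annealing with a biotinylated primer, partner subunit and triplets, incubation frozen at −7 °C, gel excision of extended constructs, streptavidin-bead capture and RT-PCR. Fitness is the logarithm, base 2, of genotype enrichment over wild-type enrichment from inverse-variance-weighted replicate averages of Illumina-sequenced inputs and outputs, keeping genotypes with ≥10 input reads and ≥1 read per output.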
row,Variant,polymerase ribozyme fitness (log ratio)
1,GGAUCUUCUCGAUCUAACAAAAAAGCCAUAUCUGCAACAAAACUUGAGAGCAUCUUCGGAAGCAGAGGCAGCCGCCUUCGGUGGCGCGAUAGCGCCAACGUUCUCAACUAUGACACGCAAAACGCGUGCUCCGUUGAAUGGAGUUUAUCAUG [A26C A29U C36A G42A U61A G70A A73C],≤ -4.2
2,GGAUCUUCUCGAUCUAACAAAAAAGACAAAUCUGCCACAAAGCUUGAGAGCAUCUUCGGAUGCAGAGGAGGCAGCCUUCGGUCGCGCGAUAGCGCCAACGUUCUCAACUAUGACACGCAAAACGCGUGCUCCGUUGAAUGGAGUUUAUCAUG [C69A G83C],-3.07
3,GGAUCUUCUCGAUCUAACAAAAAAGACAAAUCUGCCACAAAGCUUGAGAGCAUCUUCGGAUGCAGAGGCGGCAGCCUUCGGUGGCGCGCUAGCCCCAACGUUCUCAACUAUGACACGCAAAACGCGUGCUCCGUUGAAUGGAGUUUAUCAUG [A89C G94C],-1.57
4,GGAUCUUCUCGAGCUAAGAAAAAAGACAAAUCUGCCACAAAGCUAGAGAGCAUCUUCGUAUGCAGAGGCGGCAGCCUUCGGUGGCGCGAUAGCGCCAACGUUCGCAACUAUGACACGCAAAACGCGUGCUCCGCUGAAUUGAGAUUAUCAUG [U13G C18G U45A G59U U104G U134C G140U U144A],≤ -4.2
5,GGUUCUUCUCGAUCUAACAAAAAAGACAAAUCUGCCACAAAGCUUGAGAGCAUCUUCGGAUGCAGAGGCGGCAGCCUUCGGUGGUGCGAUAGCGCUAACGUUCUCAAGUAUGACACGCAAAACGCGUGCUCCGUUGAAUCGAGUUUAUCAUG [A3U C85U C96U C108G G140C],≤ -4.2
6,GGAUCUUCUCGAUCUAACAAAAAAGACAAAUCUGCCAUAAAGCUUGAGAGCAUCUUCGGAUGAAGAGGCGGCAGCCUUCGGUGGCGCGAUAGCCCCAACGUUCUCAACUAUGACACGCAAAACGCGUGCUCCGUUGAAUGGAGUUUAUCAUG [C38U C63A G94C],-0.694
7,GGAUCUUCUUGAUCUAACAAAAAAGACAAAUCUGCCACAAAGCUUGAGAGCAUCAUCGGAUGCAGAGGCGGCAGCCUUCGGUGUCGCGAUAGCGCCAACGUUCUCAACUAUGACACGCAAAACGCGUGCUCCGUUGAAUGGAGUUUAUCAUG [C10U U55A G84U],-4.1
8,GGAUCUUCUCGAUCUAACAAAAAAGACAAAUCUGCCACAAAGCUUGAGAGCAUCUUCGGAUGCAGAGGCGGCAGCCUUCGGUGGCGCGAUAGCGCCAACGCUCUCAACUAUGACACGCAAAACGCGUGCUCAGUUGAAUGGAGUUUAUCAUG [U101C C132A],-2.05
9,GGAUCUUCUCGAUCUAACAAAAACGACAAAUCUGCCACAAAGCUUGAGAGCAUCUUCGGAUGCAGAGGCGGCAGCCUUCGGUGGCCCGAUAGCGCCAACGUUCUCAACUAUGACACGCAAAACGCGUGCUCCGUUGAAUGGAAUUUACCAUG [A24C G86C G143A U148C],≤ -4.2
10,GGAUCUUCUCGAUCUAACAAAAAAGACAAAUCUGCCACAAAGCUUGAGAGCAUCUUCAGAUGCAGAGGCGGCAGCCUUCGGUGGCGCGAUAGCGCCAACGUUCUCAACUAUGACACGCAAAACGCGUGCUCCAUUGAAUGGAGUUUAUCAUG [G58A G133A],-4
11,GGCUCUUCUCGGUCUAACAAAAAACACAAAUCUGCCACAAAGCUUGAGAGCCUCUUCGGAUGCAGAGGCGGCAGCCUUCGGUGGCGCGAUAGUGCCAACGUUCUCAACUAUGACAAGCAAAACGCGUGCUCCGUUGAAUGGAGUUUAUCAUG [A3C A12G G25C A52C C93U C116A],-3.91
12,GGAUCUUGUCGAUGUAAGAAAAAAGACAAAUCUGCCACAAAGCUUGAGAGCAUCUUCGGAUGCAGAGGCGGCAGCCUUCGGUGGCGCGAUAGCGCUAACGUUCUCAACUAUGACACGCAAAACGCGUGCUCCGUUGUAUGGAGUUUAUCAUG [C8G C14G C18G C96U A137U],≤ -4.2
13,GGAUCUUCUCGAUAUAACAAAAAAGACUAAUCUGCCACAAAGCUUGAGAGCAUCUUCGGAUGCAGAGUCGGCAGCCUUCGGUGGCGCGAUACCGCCAACGUUCUCAACUAUGACACGCAAAACGUGUGCUCCGUUGCAUGGAGUUUAUCCUG [C14A A28U G68U G92C C125U A137C A150C],≤ -4.2
14,GGAUCUUCUCGAUCUAACAAAAAAGACAAAUCUGACACAAAGCUUGAGAGCAUCUUUGGAUGCAGAGGCGGCAGCCUUCGGUGGCGCGAUAGGGCCAACGUUCUCAACUAUGACACGCAAAACGCGUGCUCCGAUGAAAGGAGUUUAUCAUG [C35A C57U C93G U134A U139A],≤ -4.2
15,GGAUCUUCUCGAUCUAACAAAAAAGACAAAUCUGCCACAAAGCUUGAGAGCAUCUUGGGAUGCAGAGGCGGCAGCCUUCGGUGGCGCGAUAGCGCCAACGUUCUCAACUAUGACACGCAAAACGCGUGCUCCGUUGAAUGGAGUUUAUCAUG [C57G],-0.448
16,GGAUCUUCUCGAUCUAACAAAAAUGACAAAUCUGCCACAAAGCUUGAGAGCAUCUUCGGAUGCAGAGGCGGCAGCCUUCCGUGGCUCGAUAGCGCCAACGUUCUCAACUAUGACACGCAAAACGGGUGCUCCGUUGCAUGGAGUUUAUCAUG [A24U G80C G86U C125G A137C],≤ -4.2
17,GGAUCUUCUCGAUCUAACAAAAAAGACAAAACUGCCACAAAGCUUGAGAGCAUCUUCGGAUGCAGAGGCGGCAGCUUUCGGUGGCGCGAUAGCGCCAACGUUCUCAACUAUGACAUGCAAAACGCGGGCUCCGUUGAAUGGAGUUUAUCAUG [U31A C76U C116U U127G],≤ -4.2
18,GGAUCUUCUCGAUCUAACAAAAAAGACAAAUCUGCCACAACGCUUGAGAGCAUCUUCGGAUGCAGAGGCGGCAGCCUUCGGUGGCGCGAUAGUGCCCACGUGCUCAACUAUGACACGCAAAACGCGUGCUCCGUUGAAUGGAGUUUAUCAUG [A41C C93U A97C U102G],≤ -4.2
19,GGAUCUUCUCGAACUAACAAAAAAGACAAAUCUGCCACAAAGCUUGAUAGCAUCUACGGAUGCAGAGGCGGCAGCCUUCGGUGACGCGAUAGCGCCAACGUUCUCAACUAUGACACGCAAAACGCGUGCUCCGUUGAAUGGAGUUUAUCAUG [U13A G48U U56A G84A],-1.28
